The target of this experiment is human FcγRIIb (CD32B) (human) (UniProt P31994). The experiment in a line: cell-based or functional assay.
Sequence of UniProt P31994 (P31994 43-310): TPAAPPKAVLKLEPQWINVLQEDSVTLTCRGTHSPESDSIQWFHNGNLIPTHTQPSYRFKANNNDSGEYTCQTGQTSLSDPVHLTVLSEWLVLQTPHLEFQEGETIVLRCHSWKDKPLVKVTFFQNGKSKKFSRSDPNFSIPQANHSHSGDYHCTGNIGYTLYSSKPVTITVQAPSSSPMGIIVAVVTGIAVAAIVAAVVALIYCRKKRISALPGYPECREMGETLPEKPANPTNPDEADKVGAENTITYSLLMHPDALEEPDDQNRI

The substance rituximab F(ab')2 fragment displayed a surface accessible CD20 after 6 h culture (CLL cells) of 40%.
